From US20100273722
No end group written: not given here.

Legend:
[1] = sedimentation equilibrium AUC, self-association, 25 C
[2] = sedimentation equilibrium AUC, self-association, 5 C
[3] = sedimentation equilibrium AUC, self-association, 10 C
[4] = sedimentation equilibrium AUC, self-association, 15 C
[5] = sedimentation equilibrium AUC, self-association, 20 C
[6] = sedimentation equilibrium AUC, self-association, 30 C

B1: aPP^Y21A (peptide)
chain: GPSQPTYPGDDAPVEDLIRFADNLQQYLNVVTRHRY-NH2
- % monomer at 30 µM [1]: 14%

B2: aPP^Y7A (peptide)
chain: GPSQPTAPGDDAPVEDLIRFYDNLQQYLNVVTRHRY-NH2
- % monomer at 30 µM [1]: 98%

B3: aPP^Y7AQ25R (peptide)
chain: GPSQPTAPGDDAPVEDLIRFYDNLRQYLNVVTRHRY-NH2
- % monomer at 30 µM [1]: 78%

B4: aPP^Y7AP13VV14P (peptide)
chain: GPSQPTAPGDDAVPEDLIRFYDNLQQYLNVVTRHRY-NH2
- % monomer at 30 µM [1]: 90%

B5: aPP^F20A (peptide)
chain: GPSQPTYPGDDAPVEDLIRAYDNLQQYLNVVTRHRY-NH2
- % monomer at 30 µM [1]: 100%

B6: avian pancreatic polypeptide (aPP) (peptide)
chain: GPSQPTYPGDDAPVEDLIRFYDNLQQYLNVVTRHRY
modifications: ends and bridges not checked
- % monomer at 30 µM [1]: 23%

B7: aPP^Y7AP13SV14P (peptide)
chain: GPSQPTAPGDDASPEDLIRFYDNLQQYLNVVTRHRY-NH2
- % monomer at 30 micromolar total peptide [2]: 74%
- % monomer at 30 micromolar total peptide [3]: 82%
- % monomer at 30 micromolar total peptide [4]: 84%
- % monomer at 30 micromolar total peptide [5]: 90%
- % monomer at 30 micromolar total peptide [1]: 90%
- % monomer at 30 micromolar total peptide [6]: 98%

B8: aPP^Y7AT6E (peptide)
chain: GPSQPEAPGDDAPVEDLIRFYDNLQQYLNVVTRHRY-NH2
- % monomer at 30 µM [1]: 79%
